The target in one assay is rat NGF (rat) (UniProt P25427). In words: cell-based or functional assay.
The target in a further assay is NGF (species not stated). In words: cell-based or functional assay.
Assay [1] has as its target canine beta-NGF (cNGF) (canine). In words: SPR (Biacore), cNGF binding. For orientation: SPR reads the build-up and loss of mass on a sensor chip optically.
Assay [2] shares this target. In words: SPR (Biacore), cNGF binding; KD column of Table 7.

rat NGF (rat), sequence (P25427 122-241 limits assumed): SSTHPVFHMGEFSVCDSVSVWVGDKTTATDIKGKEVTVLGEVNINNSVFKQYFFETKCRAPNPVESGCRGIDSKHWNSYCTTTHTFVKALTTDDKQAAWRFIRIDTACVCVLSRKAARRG
canine beta-NGF (cNGF) (canine), sequence (Q29074 110-229 N171T limits assumed): as the sequence (P25427 122-241 limits assumed) above, with T3S, M9R, T37M, A60D, N62T, E65D, T92M, D94G, A117G, G120A counted along it

B1: ZTS-182m6 (antibody, V domains shown)
VH: EVQLVESGGDLARPGGSLKLSCVVSGFTLTQYGINWVRQAPGKGLQWVTVIWATGATDYNSALKSRFTVSRDNAMNTVYLQMNSLRVEDTAVYYCARDGWWYATSWYFDVWGQGTLVTVSS
VL: DIVMTQTPLSLSVSPGEPASISCKASQDINHYLNWFRQKPDGTVKLLIYYTTRLQAGVPSRFSGSGSGTDFTLRISRVEADDAGVYYCQQGDHFPRTFGQGT
For the molecule B1, in the assay with rat NGF (rat), the IC50 nM (inhibition of neurite outgrowth, PC12 cells, rat NGF 10 ng/ml; Repeat 1) was found to be 0.26 nM; the IC50 nM (inhibition of neurite outgrowth, PC12 cells, rat NGF 10 ng/ml; Repeat 2) was determined as 0.24 nM; the IC50 µg/ml (inhibition of neurite outgrowth, PC12 cells, rat NGF 10 ng/ml; Repeat 1) came out at 0.039 µg/mL; the IC50 µg/ml (inhibition of neurite outgrowth, PC12 cells, rat NGF 10 ng/ml; Repeat 2) amounted to 0.035 µg/mL. In the assay with NGF (species not stated), the IC50 nM (TF-1 proliferation inhibition, NGF 2.0 ng/ml) is 0.087 nM and the IC50 µg/ml (TF-1 proliferation inhibition, NGF 2.0 ng/ml) was found to be 0.0131 µg/mL. Moreover, in assay [1], the dissociation constant Kd (usually the constant that tells how readily two partners part at equilibrium) worked out at 0.00434 nM; the koff (as a rule, a measure of how fast the partners let go of each other) came to 1.54e-08 s⁻¹; the kon (in general, the second-order rate constant of association) is 3560 M⁻¹ s⁻¹. In addition, the Kd in assay [2] came out at 0.00434 nM.

These data come from patent publication US20220106391A1.
